According to the DeepSol protein solubility set:

Assay: soluble on expression in E. coli; label from the status in PepcDB or PDB records

Sequence | soluble on expression in E. coli
MGSDKIHHHHHHMTAIVEPTWEERRTPEAAHEDDARSQYRKDYSRIIHSAALRRLQTKTQVLGLGDSDFYRTRLTHSLEVAQIGVGILLEIQRRFAGSNIEKYLPDERLLEAICLSHDYGHPPFGHGGERALNFAMREYGGFEGNAQTFRILSKLEKYSQNSGLNPTRRTLLGVLKYPTTYSNSMTNDFRRGTDIDKYPDAELKPPKCIYDCDLDVLDWVLKIFCSEDVTEFKKLDYKCKPLHKSLDCSLMETADDIAYTVHDLEDCIKLKLINREMWDAYIKSADYSEATRLEIEKWNQRIFSKEGNLVKQGISNMVYFFIHSVIQYEHEELSHPILKYGFKLGEEAARLRSAIQKIITNEVIKTHRVRVLESKGQRMIFSIFGELVRDPESFLPRETLDKYNKATGNLRMRVICDYVSGMTDEYATKTYQRFFTPKFGSVFDV | not soluble
MGSDKIHHHHHHLSPSVYPKSMADMETIVTSVYANMVAVPLYGKRVMAKGTFCVDHTVDMAWTGDANWNQLATNQVTSDNAYIGTLWIGYYKMISCANTVLEQLERIDKEKFTDADLARLSQMKGEALFWRGWAHQQLVAFFGEGYPCNGDGDKKGVPVRLQVASTPDMLNIERSTVAEVYDQILKDYEAAKLLLPAVWEERADYPRPTSVAVASYIGQANLYMGNYDAAKKALKEVIDSSGKELLPFNEYAKMFNEDQEKFNRESILEINFRNGDTSGYFWYGEGSQYGLIAALCFQNASGDVEAAGWGNIFFHDANIKRFNGDPRLDIAALRPGTPVIMNGQQTQVLKYKDTEADIQGWSMRKYNPLKSTVNELNLGVGINMYLMRLADVYLMYAEACQATGDEVNARNYMNLVRRRAYNGDSSHDITASGEALRDAIREERFMEFCGEGVQHWQDVCRWKVLDEEISRWYGKTRVGNPHYDAKDLYFPIPKVEMENNPNMTQSIGYENE | not soluble
MGSDKIHHHHHHMDRSYRTPKAWLTKTSGFLQGYDYSLNPYVGCTFACSYCYVRKMPVALFHKGEWGDWVDIKQGVKETFSNELVRAKKRGRVHLFMSSSTDPYQPVEVEEKVTRSLLEVMADNPPDFLFVQTRSPLVTRDVDILQQLGKRVRVSLTIETDLESVRKAFAPKAPPIQGRKRALHALYQAGIPTQLTVAPILPSSDRFAESYVSIADQVCIDTFELGDGANGKRSRALRMPERLTELGYESWYEEAALEKVHQQFCAHFDESRVKLSQEGFLP | not soluble
KLVIAIVQDKDANYLSDQFIDQNVRATKLSTTGGFLQSGNTTFMIGIEEERVPEVLEIIKKASHTREEFMTPSVNMDVNMEGTTAYPIKVQVGGATVLVLPVDQFERF | not soluble
MGSDKIHHHHHHMDIGHRMKELRIQYGLTQQELADRAELTKGFISQLERNQNSPSVGTLLDIIQCLGMTPAEFFTDSEPEQIVYKANDYFEKIDEEKNSKVEWIIPNAQTRSMEPVRLTLHPGGSSEIYLPQECEEFGYVIKGTVKLCYGGKVHTVKAGESFYFKAGKKHFIENKSSKDAMLIWVSNPPSF | not soluble
MRLTGKQTWVFQNDIYVNATGTAVGPKEAEGPLGKKFDISYGDLHCGEENWELAERRLMSDSIQQAVQKGNIKTSQIDFFLAGDLLNQTVTANYVARKWGIPFLGMFSACATSMETLAVGSAFIDGGFANRVLATVSSHNATAERQFRYPTEYGGQKPGTANSTVTGAGSILISNEKSAIKITSATIGKVQDLGITNPLDMGAAMAPAAAHTIQQHFEDLRRSADDYDLIVTGDLSAVGTPIAKQLLLEEGYDLGHIYNDCGLMIYESSQEEVFAGGSGCACSAVVTYGHLLHEMQKGNLQRIFVVATGALLSPMMMQQKETIPTIAHGVVFERVKGELEHHHHHH | soluble
MNFIIEPGSLADIDELERLYDELNDHLSATINYPGWIKGIYPVRENAAAGVDDNSLFVARCDGRIAGSVILDHQPEKAYENIVWKIDADYSYIFVVRTFVVHPSFLQMGVGHALMDFSLELALKSEMKSIRLDVYEKNLPAISLYEKCGFEYIDTVDLGLGHYGLDWFKLYEKVI | not soluble
MSVEAEKAVLGTFLECPYLLKETVLTETHFSDPKHRKLFAAMKRIAQQGDEPDIVTLSTTEDVADFGGLSYLNEVSAFANETKFDQYEALVLDEWKEREKRRILVVAAQENWDIDKITTALTRLNEGRITDHHDISDLLHEVAEAPWTPTERKMGAPSGISELDKMLNGFNDGDSIILAARPSMGKTDFMIHFAKSVGWHGYLPIVFSLEMAADKIRDRLIGSIGGFNRMKLRNPYHDLSEEQKRMWIEVIGKASETRMQIFDGAGQSIADIRSKIRKAINRFPDRKPVVFIDYLTLIRPERYYGGNMHLQVTEISRAIKETAKEFSCPIITLAQLSRDVEKRSDKRPLMSDIRESGSIEQDADVVIFLYRDSYYNADADPRVAEVIVAKSRNGAVGTVRVSYNRNTGVIQDLYRP | not soluble
MSINNTQNNCRFCSEISQANGEDPIGTAIAVEQYLIIEAAQPWPIPIWIEPDPMPQGVIEALNFIWEGGGTVRQLAIAPDKEYSHPGYTRVIYYRRPAKFFAQFEKQEFIVPHALLGSLALALLKNPEELPNFNQYRQQTNHIREILVCNHGNVDAACSRFGYPIYQKLRSEYAAATNSNLRFWRCSHFGGHEFAPTLVDLPQGQYWGHLKPEILDLLVLRNGSVKELYPYYRGWGGLSFFEQIAEREIWMLEGWKWLEYHKAGQVLASDEINQEWADVRIDFTTVDGNISSAYQARVEVKGSVMTAWKSGANPTLEEVKQYRVRNLVKLAL | not soluble
MIIKPRIRGFICTTTHPVGCEANVKEQIAYTKAQGPIKNAPKRVLVVGASSGYGLSSRIAAAFGGGASTIGVFFEKEGTEKKPGTAGFYNAAAFEKLAREEGLYAKSLNGDAFSNEAKQKTIDLIKEDLGQVDMVVYSLASPVRKMPETGELIRSALKPIGETYTSTAVDTNKDVIIEASVEPATEEEIKDTVTVMGGEDWELWINALSDAGVLAEGCKTVAYSYIGTELTWPIYWDGALGKAKMDLDRAAKALNEKLGATGGSANVAVLKSVVTQASSAIPVMPLYIAMVFKKMREEGVHEGCMEQIYRMFSQRLYKEDGSAAEVDDMNRLRLDDWELREDIQQHCRELWPQITTENLKELTDYVEYKEEFLKLFGFGVEGVDYEADVNPAVETDFIQI | soluble
MFKLFTARQHDKIWDFDGGIHPPEMKLQSSTVPMRIAPLPDQLIIPLQQHLGPEGELRVRAGEQVLKGQPLTVGRGRTVPVHAPTSGMITAIAPHTTAHPSGLAELCVHITPDGEDRWREQQPWADYRQRDKMALLDRIHQAGIAGLGGAGFPTASKLQGGLNGIITLIINAAECEPYITADDRLMQEHADEVITGIHILRHLLQPQQVLIGIEDNKPEAIAALQRALRGQDDIHLRVVPTKYPSGGAKQLTKILTGKEVPFGKHSSSIGVLMQNVGTVVAIKRAVIDDEPLIERVVTLTGDALSSPGNFWARIGTPVLYLLKLAGFKPQNPPMVIMGGPLMGFTLPSLDVPIVKISNCILAPAETEMGLSEPEQSCIRCGLCVDACPAGLLPQQLYWFSRGEEHEKARNHNLFDCIECGACAYVCPSNIPLVQYYRQEKAEIRALDQESARAAEAKARFEAKQARLAREKLARELRHKQAAVKLTDADQQTVDAAVSRLTRQSDGSESVINIPAGQMPDNSAVIAAREARKAQARARQAEKQQARSTEETTDVVDPRQAAVAAAIARVKAKKAVQAQHVTTDVAEAGSEAMAEDPRKAAVAAAIARVKAKKAAQAINPD | not soluble
MGSDKIHHHHHHMGHKVTGSDANVYPPMSTQLEQQGIELIQGFDPAQLGKEGDNQPDLVVIGNAMSRGNPCVEAVLNRGIKYTSGPQFLSEHILQDRWVLAVAGTHGKTSTSSMLAWVLEYCGYEPGFLIGGVPQNFGVSARLGNSVFFVVEADEYDSAFFDKRSKFVHYHPRTLVINNLEFDHADIFADLAAIQRQFNHVIRTVPGEGKVIWPSDVEAVQQVIDMGCWSEQEIYSKATSLTTGLAEHSVNVSANQGEPNAWQPRTIADDGHEFEVLFKGESQGIVNWSLIGQHNIENAIMAIAAARHVGVAPSHAIEALAQFSPPKRRLELLATVNGVSVYDDFAHHPTAIATTLQGLRAKVASSDNANGNIIVVLEPRSNTMKSGVHKDTLANSMVLADVGYLYQADNIDWDIKASMANAPIPVTVFNNIEDIINAVAATANQGDTVVIMSNGGFNGIHQKMIKALA | not soluble
ARIRAPQEATVKEVHDAPAVRGSIIANMLQEHDNPFTLYPYDTNYLIYTQTSDLNKEAIASYDWAENARKDEVKFQLSLAFPLWRGILGPNSVLGASYTQKSWWQLSNSEESSPFRETNYEPQLFLGFATDYRFAGWTLRDVEMGYNHDSNGRSDPTSRSWNRLYTRLMAENGNWLVEVKPWYVVGNTDDNPDITKYMGYYQLKIGYHLGDAVLSAKGQYNWNTGYGGAELGLSYPITKHVRLYTQVYSGYGESLIDYNFNQTRVGVGVMLNDLF | soluble
MRRYLEHLMIKLSEKGVFLASNNEIIAEEHFTGEIKKEEAKKGTIAWSILSSHNTSGNMDKLKIKFDSLASHDITFVGIVQTAKASGMERFPLPYVLTNCHNSLCAVGGTINGDDHVFGLSAAQRYGGIFVPPHIAVIHQYMREMMAGGGKMILGSDSHTRYGALGTMAVGEGGGELVKQLLNDTWDIDYPGVVAVHLTGKPAPYVGPQDVALAIIGAVFKNGYVKNKVMEFVGPGVSALSTDFRNSVDVMTTETTCLSSVWQTDEEVHNWLALHGRGQDYCQLNPQPMAYYDGCISVDLSAIKPMIALPFHPSNVYEIDTLNQNLTDILREIEIESERVAHGKAKLSLLDKVENGRLKVQQGIIAGCSGGNYENVIAAANALRGQSCGNDTFSLAVYPSSQPVFMDLAKKGVVADLIGAGAIIRTAFCGPCFGAGDTPINNGLSIRHTTRNFPNREGSKPANGQMSAVALMDARSIAATAANGGYLTSASELDCWDNVPEYAFDVTPYKNRVYQGFVKGATQQPLIYGPNIKDWPELGALTDNIVLKVCSKILDEVTTTDELIPSGETSSYRSNPIGLAEFTLSRRDPGYVSRSKATAELENQRLAGNVSELTEVFARIKQIAGQEHIDPLQTEIGSMVYAVKPGDGSAREQAASCQRVIGGLANIAEEYATKRYRSNVINWGMLPLQMAEVPTFEVGDYIYIPGIKAALDNPGTTFKGYVIHEDAPVTEITLYMESLTAEEREIIKAGSLINFNKNRQM | not soluble
MGSDKIHHHHHHMNWESTPVLMLTPFHHMQRGNTLTTLRLQTALRQRGFTVDLLSLEEKGWRDSLREYLINGKYSLVHGFNARYFGGVLTEFPELRNLPLILTTTGSDLNYDLKNSGRDLVLAAFAAAEKIIVFHDYFQKLIGDAYPEYCSKLSTIPQGVWLEESPPIKREMIGLAADNIVFALPSGLRPVKDIELAIDGLQRVYKDFPELRLLIIGPVIDRDYGQKIKQRVSELNWVFYLGEVLHSDMGNYLSLADVILNTSQAEGQPQGLLEGMSQNKPAILTAVPGNLDIIEEGRQGYYVRNQEELAVAARKMLSSAESRQRMGWEAGKLVKEKFSLAREIQSYAELYRQVLSP | not soluble
MGSDKIHHHHHHMAIRSSVLALCVATLLTGCQNLNTNTLMQSGAQAFQAATLSDAQVKALSDQSCEQMDKEAKIAPADSKYTQRLNKIADALGHDINGTPANYKVYLEKDVNAWAMANGCIRVYSGLMDMMNDNEVEGVLGHEMGHVALGHTRKAMQVAYAATAARTAIASAGGVAASLSQSQLADLGEKLVNSQFSQSQESQADDYSFDLLKKRGINREGLASSFEKLAKLDASHESSMFDSHPSSEGRAKHIRERITAEK | not soluble
MEIGDLNEVNELVSRLNNENVKIAEVNDYIQTLSAGIEEMNVQAQQLSDFAVESSSMAEKGKEISDNVALKVSKISETSREMSNAISILAEYSKKIDEIVYVISSIASQTNLLALNASIEAARAGEAGRGFAVVAENVRELADRSKKAAEQIRDLIKEMQENTNRVIEAIQENVKVTEEVKEAIQELIAAFDDIARRANETATMVKELSEGIDEQANSVQMLVERIDSISKDVSDNLNFATQLTETVKGSIEKLEVIKNKVSQLKDELDKTLEKLEV | soluble
